Reference: the supplement of paper PMC11865577

How the values were obtained:
Experiment in all cases: pull-down binding Z-score (relative to library population); higher = stronger binding
[1] = system: TO-3-N3-2 (biotin conjugate); conditions: RNA library: Library-2
Summary of the method: (§1)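 Cy5- or Cy3-end-labelled RNA library (1 μg) was heat-folded in phosphate/NaCl/KCl buffer and incubated 60 min at 25 °C with streptavidin beads carrying 100 pmol biotin-conjugated small molecule. After three washes, bound RNA was eluted in hot SDS and hybridised 20 h at 55.5 °C to a DNA barcode microarray. Binding was scored by subtracting a beads-only control, averaging barcoded replicate probes after dropping highest and lowest, and converting to a Z-score against library mean and standard deviation.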

[2] = system: TO-N3 (biotin conjugate); conditions: RNA library: Library-2
Summary of the method: as §1

[3] = system: TO-N3-2 (biotin conjugate); conditions: RNA library: Library-2
Summary of the method: as §1

[4] = system: G-clamp-N3 (biotin conjugate); conditions: RNA library: Library-1 (pre-miRNA loops + repeats)
Summary of the method: as §1

[5] = system: TO-3-N3 (biotin conjugate); conditions: RNA library: Library-2
Summary of the method: as §1

Sequence | pull-down binding Z-score [1] | pull-down binding Z-score [2] | pull-down binding Z-score [3] | pull-down binding Z-score [4] | pull-down binding Z-score [5]
AUUCUGGACACCAG [hsa-mir-147b] | 0.387 | 0.311 | 0.326 | -0.497 | 0.0367
AUUCUGGAGUCCAUCUAGAG [hsa-mir-1182] | -0.378 | -0.598 | -0.297 | -1.08 | -0.538
AUUCUGGCUAGGUGAUCAUCAGAAU [hsa-mir-5583-1] | -0.406 | -1.07 | -0.726 | 0.902 | -0.794
AUUGAGAGUUCCUUCUCCUGCUCCUGAU [hsa-mir-6766] | -0.369 | -0.462 | -0.0576 | -0.32 | -0.548
AUUGAGUUACCUUUCUGACUUUCCCACU [hsa-mir-28] | 0.0519 | -0.0391 | -0.279 | -0.594 | 0.108
AUUGCACGUGUGUGAGGCGGGUGCAGU [hsa-mir-33b] | 0.102 | 0.7 | 0.592 | 0.513 | 0.626
AUUGCAUGUUCUGGUGGUACCCAUGCAAU [hsa-mir-33a] | 0.0325 | 0.127 | 0.382 | -0.215 | 0.18
AUUGCUGGACGCUGCCCUGGGCAU [hsa-mir-25] | 0.488 | 1.12 | 1.4 | -0.192 | 0.362
AUUGGAUGGAGUCAGGUCUCUAAU [hsa-mir-200b] | 0.101 | 0.26 | 0.568 | 0.359 | -0.126
AUUGGCUUGGAUUCUGCAAAGCCU [hsa-mir-7151] | 0.281 | 0.194 | 1.03 | 0.697 | -0.259
AUUGUACUGUGGUGGUUACAAU [hsa-mir-34b] | -0.429 | -0.984 | -1.19 | 0.118 | -0.851
AUUGUUGCCUCUGCAUGUUACAAU [hsa-mir-8066] | -0.512 | -0.485 | -0.665 | 0.523 | -0.204
AUUGUUGUGGGGUAGGGAUAUUAGGCCCCAAUUAGAAGAUAACUAU [hsa-mir-98] | 1.1 | 1.07 | 0.971 | 1.37 | 1.03
AUUUAUGUGAACUAAAAUAUAAAU [hsa-mir-513b] | 0.14 | 1.03 | -0.599 | -0.828 | 1.21
AUUUCCCAAAGUUGGGAAAA [hsa-mir-320b-2] | -0.231 | -0.432 | -1.08 | -1.23 | 0.0303
AUUUCUGUAGCUCUGAGACUAGACCU [hsa-mir-544b] | -0.376 | -0.0563 | 0.409 | -0.0868 | -0.442
